The results in this text go back to publication PMC2860377.

A word on the Km: it is the substrate concentration at which the rate is half of its maximum.

This data set concerns CSCC[C@H](N)C(=O)Nc1ccc2c(C)cc(=O)oc2c1. In words: purified protein. The settings on record: Fe(II) form, 10 μM FeCl2.

As to “MtMetAP1a (Mycobacterium tuberculosis H37Rv)”, the Km came to 161 µM.
